{
  "source": "paper PMC7511310",
  "about": "“Ancestral sequence reconstruction produces thermally stable enzymes with mesophilic enzyme-like catalytic properties” (Scientific Reports, 2020)",
  "proteins": {"B1": {"name": "T. thermophilus IPMDH (Thermus thermophilus HB8) (protein)", "chain": "MKVAVLPGDGIGPEVTEAALKVLRALDEAEGLGLAYEVFPFGGAAIDAFGEPFPEPTRKGVEEAEAVLLGSVGGPKWDGLPRKIRPETGLLSLRKSQDLFANLRPAKVFPGLERLSPLKEEIARGVDVLIVRELTGGIYFGEPRGMSEAEAWNTERYSKPEVERVARVAFEAARKRRKHVVSVDKANVLEVGEFWRKTVEEVGRGYPDVALEHQYVDAMAMHLVRSPARFDVVVTGNIFGDILSDLASVLPGSLGLLPSASLGRGTPVFEPVHGSAPDIAGKGIANPTAAILSAAMMLEHAFGLVELARKVEDAVAKALLETPPPDLGGSAGTEAFTATVLRHLA", "notes": "extant thermophilic wild type; homodimer"}, "B2": {"name": "B. subtilis IPMDH (Bacillus subtilis subsp. subtilis str. 168) (protein)", "chain": "MKKRIALLPGDGIGPEVLESATDVLKSVAERFNHEFEFEYGLIGGAAIDEHHNPLPEETVAACKNADAILLGAVGGPKWDQNPSELRPEKGLLSIRKQLDLFANLRPVKVFESLSDASPLKKEYIDNVDFVIVRELTGGLYFGQPSKRYVNTEGEQEAVDTLFYKRTEIERVIREGFKMAAARKGKVTSVDKANVLESSRLWREVAEDVAQEFPDVKLEHMLVDNAAMQLIYAPNQFDVVVTENMFGDILSDEASMLTGSLGMLPSASLSSSGLHLFEPVHGSAPDIAGKGMANPFAAILSAAMLLRTSFGLEEEAKAVEDAVNKVLASGKRTRDLARSEEFSSTQAITEEVKAAIMSENTISNV", "notes": "recombinant from E. coli Rosetta2 (DE3), pET21c(+) NdeI-BamHI, purified by HiTrap-Q, HiTrap-Butyl and ResourceQ; no tag mentioned"}, "B3": {"name": "S. cerevisiae IPMDH (Saccharomyces cerevisiae S288C) (protein)", "chain": "MSAPKKIVVLPGDHVGQEITAEAIKVLKAISDVRSNVKFDFENHLIGGAAIDATGVPLPDEALEASKKADAVLLGAVGGPKWGTGSVRPEQGLLKIRKELQLYANLRPCNFASDSLLDLSPIKPQFAKGTDFVVVRELVGGIYFGKRKEDDGDGVAWDSEQYTVPEVQRITRMAAFMALQHEPPLPIWSLDKANVLASSRLWRKTVEETIKNEFPTLKVQHQLIDSAAMILVKNPTHLNGIIITSNMFGDIISDEASVIPGSLGLLPSASLASLPDKNTAFGLYEPCHGSAPDLPKNKVNPIATILSAAMMLKLSLNLPEEGKAIEDAVKKVLDAGIRTGDLGGSNSTTEVGDAVAEEVKKILA", "notes": "as for B2"}},
  "test_in_all_cases": "A340 NADH formation, steady state, Michaelis-Menten fit",
  "key": {"[1]": {"substrate": "CC(C)[C@H](C(=O)O)[C@@H](O)C(=O)O", "format": "biochemical, Thermus thermophilus", "settings": "40 °C, 50 mM HEPES pH 8.0, 100 mM KCl, 5 mM MgCl2, 5 mM NAD+ fixed, 40.0 °C", "excerpt": "(§1) A340 NADH formation, steady state, Michaelis-Menten fit on T. thermophilus IPMDH"}, "[2]": {"substrate": "NC(=O)c1ccc[n+]([C@@H]2O[C@H](COP(=O)(O)OP(=O)(O)OC[C@H]3O[C@@H](n4cnc5c(N)ncnc54)[C@H](O)[C@@H]3O)[C@@H](O)[C@H]2O)c1", "format": "biochemical, Thermus thermophilus", "settings": "25 °C, 50 mM HEPES pH 8.0, 100 mM KCl, 5 mM MgCl2, 0.2 mM D-3-IPM fixed, 25.0 °C, varied: cofactor", "excerpt": "as §1"}, "[3]": {"substrate": "CC(C)[C@H](C(=O)O)[C@@H](O)C(=O)O", "format": "biochemical, Bacillus subtilis", "settings": "40 °C, 50 mM HEPES pH 8.0, 100 mM KCl, 5 mM MgCl2, 5 mM NAD+ fixed, 40.0 °C", "excerpt": "(§2) A340 NADH formation, steady state, Michaelis-Menten fit on B. subtilis IPMDH"}, "[4]": {"substrate": "NC(=O)c1ccc[n+]([C@@H]2O[C@H](COP(=O)(O)OP(=O)(O)OC[C@H]3O[C@@H](n4cnc5c(N)ncnc54)[C@H](O)[C@@H]3O)[C@@H](O)[C@H]2O)c1", "format": "biochemical, Bacillus subtilis", "settings": "25 °C, 50 mM HEPES pH 8.0, 100 mM KCl, 5 mM MgCl2, 0.2 mM D-3-IPM fixed, 25.0 °C, varied: cofactor", "excerpt": "as §2"}, "[5]": {"substrate": "CC(C)[C@H](C(=O)O)[C@@H](O)C(=O)O", "format": "biochemical, Saccharomyces cerevisiae", "settings": "40 °C, 50 mM HEPES pH 8.0, 100 mM KCl, 5 mM MgCl2, 5 mM NAD+ fixed, 40.0 °C", "excerpt": "(§3) A340 NADH formation, steady state, Michaelis-Menten fit on S. cerevisiae IPMDH"}, "[6]": {"substrate": "NC(=O)c1ccc[n+]([C@@H]2O[C@H](COP(=O)(O)OP(=O)(O)OC[C@H]3O[C@@H](n4cnc5c(N)ncnc54)[C@H](O)[C@@H]3O)[C@@H](O)[C@H]2O)c1", "format": "biochemical, Saccharomyces cerevisiae", "settings": "25 °C, 50 mM HEPES pH 8.0, 100 mM KCl, 5 mM MgCl2, 0.2 mM D-3-IPM fixed, 25.0 °C, varied: cofactor", "excerpt": "as §3"}},
  "data": [
    {"protein": "B1", "values": [
      {"measurement": "Km", "setting": "[1]", "value": "2.3 ± 0.8", "unit": "µM"},
      {"measurement": "kcat", "setting": "[1]", "value": "2.4 ± 0.1", "unit": "s⁻¹"},
      {"measurement": "Km", "setting": "[2]", "value": "2.2 ± 0.3", "unit": "µM"},
      {"measurement": "kcat", "setting": "[2]", "value": "0.37 ± 0.01", "unit": "s⁻¹"}
    ]},
    {"protein": "B2", "values": [
      {"measurement": "Km", "setting": "[3]", "value": "0.78 ± 0.11", "unit": "µM"},
      {"measurement": "kcat", "setting": "[3]", "value": "9.4 ± 0.2", "unit": "s⁻¹"},
      {"measurement": "Km", "setting": "[4]", "value": "110 ± 10", "unit": "µM"},
      {"measurement": "kcat", "setting": "[4]", "value": "2.8 ± 0.1", "unit": "s⁻¹"}
    ]},
    {"protein": "B3", "values": [
      {"measurement": "Km", "setting": "[5]", "value": "4.5 ± 0.7", "unit": "µM"},
      {"measurement": "kcat", "setting": "[5]", "value": "20 ± 1", "unit": "s⁻¹"},
      {"measurement": "Km", "setting": "[6]", "value": "130 ± 10", "unit": "µM"},
      {"measurement": "kcat", "setting": "[6]", "value": "5.1 ± 0.1", "unit": "s⁻¹"}
    ]}
  ]
}
